Data from the domain aggregation screens of Martell et al. (2025).

Test: soluble fraction after stress (log2 fold change); higher = more stays soluble; pooled small domains, quantitative proteomics
Details: stress: 50 degC
Outline: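 Quantitative proteomics served as the high-throughput read-out for pooled custom libraries of small protein domains. Each was stressed at 50°C. Aggregation propensity is expressed as the base-two log fold change in soluble protein after stress. A higher value means a larger share of the protein remains in solution.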

Point of comparison: “HMLDQGTQSRYQIMDGVRALITGDWSSHGAGLVRELSQEVARTSGLTATSERTFFVPFSALS”, “soluble fraction (log2)” value 0.0364. Against it:
- HMRNISLSLRWHSGEWTADRLKSEVLALPGAMDMTVFEPQSQAYLRVEQGFDTKLLPAGIDVH — lower, -0.927
- HMEPEVEITYFKPDERKAGGAYVTVTGAVIKVDDFERLITMQDGTKIPMDDILSIDGELFLS — lower, -0.333
- HMAQVRSTVERRENGTYTVELNLNDDVDNVMRLQLMVATKEMAEDLAQRFQKNPEQVYSQLVTALYG — within 0.2 log units, 0.0631
- HMSSETTVPAVVGIKEDKARQLASEQGLRLRVKSREESADVEEGIIISQDPNSNTKVKKGDEIEVVVS — higher, 0.254
- HMISFTDLEHIEKMIENVLYTKTPLNLPPTDAKIRKIEHQIARRYGLNSESFGDEPRRFVVVYPNEERE — lower, -0.625
- HMSNLTDLVSAKEAEVYLHFLESGSTAGMTEAELRAVRKIEELIQSNKIDYNGILRIRNETVK — within 0.2 log units, 0.139
- HMSANVSMEEALRRTSQAHSLAGKWMRRVLQMAQGRDLIEQMQREAQEAHLPELIGMSVQLEFIRRG — within 0.2 log units, -0.11
- HMIIVMSANANAREISEVIARIRAMGYDVHLSHGKERTIIGVIGRGTPIDREQLSLMSGVQQVMPV — lower, -1.03
- HMQRSVKNNDTVQVHYTGKLTNGQIFDSSIDKQPLEFQLGQGQIIPGFEKGLIDMTVSEKKTITIPEAEAY — within 0.2 log units, 0.1
- HMRISLKAQVYEYLKQAIINGDLKVGEIYSEQYFADKLSISRTPVREAILQLQHENMVEVKANRGIIVK — lower, -0.472
- HMVDSTDLIPLLIKVSREKQGNKKLNWGEWLKIPENIYLKQINENIARKVFEDTNDLIDEAVNYINRKRRN — lower, -0.602
- HMPKYLNIYHELAQRIQEGALPAETKLPSETELMQEFEASRGTVRKAIDALQEKGFVRKHQGKGVFVLSQ — lower, -0.371
- HMQDTQAEEGETLLDALRRIHPESSTGTLRRMLTQGRVQLDGDSVHAAKTVLSAGQRVEVVAR — within 0.2 log units, 0.0446
- HMGEKTVPNVIGQKLATAKQLLEKEGLTVGSTSYNKNQADKDTVLSTDPAPGSHLSEGAKVNLTLSSGA — higher, 0.261
- HMTGINMSYEEYKAMADIIVPLIKAGHSPYHIVTNHPELNISEKTLYNYIENGIFREFGLLDINL — lower, -0.313
- HMPAVVEFDVKPRGEVLVDGIWYGRIPELREVELRPGRHHLRVQNAGHPSLDLVVTLEPGERMTVTHTFA — within 0.2 log units, -0.102
- HMTVEVFQSLVQTFREMSPRKAASILEELKRDLAVEILLHMPEDGVAAILARMDPARAARLTEQLALEKD — lower, -0.979
- HMAMDYEGFKKSVYALTSIDLNAYKERQMKRRIDTLIAKNKYNGYEDYTAAIKKDKALFEEFVNYLTIN — lower, -0.284
- HMQIMVVDEADRMLDMGFIPDIERIFQLTPFTRQTLFFSATMAPEIERITDTFLHSPERIEVAR — lower, -0.288
- HMDEDTWKLYKRAYKKYYARYMKGNMSEAAFKAWGEQAAADRDAAIEQLRATTDAALSASIIQQLKEKLNR — lower, -0.581
- HMRRVGTALNRSHKVSYGESIQSIAARYNVNPTMLREYNRLKPEATITPGQILRIPPATIAS — within 0.2 log units, 0.00426
- HMQSKDDLLDTFRVVKGNAALLNDQNKKLIRSLKVSSFGFTGITDQAAEVKKEMPDVLLEKASIEDILF — within 0.2 log units, -0.12
- HMRSHLSANLQRLRHIAGLTQKDLALAANLPRATLASLEQGEANPRLDTLLAVASALQVGLDELIAAP — lower, -0.866
- HMEDGEALARAVASLPGKYREVLFLKYSHGYSVDEIALILSMSKENVKKTIQRARKKLEQLLESE — lower, -0.898
- HMTGKVKWYDADKGFGFVTEDGGRDVYVRKSALPQGVETLKAGQRLEFGIAEGRRGPQALSVR — within 0.2 log units, 0.0817
- HMDKLFNRQTLGGVELTQKQIEDLNAGKAIFVEGMQRKDGEVFSSYVKLDEATGRPSYTRYNPDSP — higher, 0.441
- HMSKQQVRSILDDIPNIGETRRKALMRQFQSLEKIREASVGQLREVDGMNEKAAQSVYQFFHK — within 0.2 log units, -0.0486
- HMAEPIAAGKYTVSTSGSVLNMRVSPDADSQVLEKIPNGTIVEVTKSVLGWAYVTYNSAQGWVSSAYLV — within 0.2 log units, 0.15
- HMLRVVSTRQAFDIVRGWADAHPQDPEHNKTLDELEELAKKEVWDDWSRTNEIAERLNALLVSIGANVRTA — lower, -0.742
- HMPPQPATQNTKAQVMQLAREKELMAGEGRGANVEALEKFANEHGISLRGMTEEQAEQLVKLLMEYTP — lower, -0.258
